T1: Siah-1 (22-298) (human, UniProt Q8IUQ4 6-282)
T1 construct: also called Siah-1α amino acids 22-298; LexA/Siah-1 bait
T1 sequence: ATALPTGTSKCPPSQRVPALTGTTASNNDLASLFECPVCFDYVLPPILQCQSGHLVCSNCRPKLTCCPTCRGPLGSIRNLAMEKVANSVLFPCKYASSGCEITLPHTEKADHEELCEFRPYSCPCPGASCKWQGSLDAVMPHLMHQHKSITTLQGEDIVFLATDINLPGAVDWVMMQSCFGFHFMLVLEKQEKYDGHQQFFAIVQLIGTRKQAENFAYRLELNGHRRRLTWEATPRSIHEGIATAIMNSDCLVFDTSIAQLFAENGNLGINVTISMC

T2: SAF-1 (human, UniProt Q9Y3I1 92-522)
T2 construct: also called SAF-1α; Skp1-Associated F-box protein-1
T2 sequence: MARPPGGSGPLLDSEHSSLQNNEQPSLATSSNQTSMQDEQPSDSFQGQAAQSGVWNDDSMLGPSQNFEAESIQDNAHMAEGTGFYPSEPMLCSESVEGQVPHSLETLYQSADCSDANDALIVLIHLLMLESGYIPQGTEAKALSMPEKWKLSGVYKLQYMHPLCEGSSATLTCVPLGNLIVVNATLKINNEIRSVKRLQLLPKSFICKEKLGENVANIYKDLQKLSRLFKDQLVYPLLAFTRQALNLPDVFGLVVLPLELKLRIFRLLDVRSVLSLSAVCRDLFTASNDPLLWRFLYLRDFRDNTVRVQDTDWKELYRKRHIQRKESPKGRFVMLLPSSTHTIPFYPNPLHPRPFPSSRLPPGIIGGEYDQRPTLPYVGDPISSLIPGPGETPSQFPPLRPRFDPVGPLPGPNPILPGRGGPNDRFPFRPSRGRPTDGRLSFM

B1: ODC-RANK peptide (protein, part only; not given: Order of parts uncertain, part only)
chain, part: MEQKLISEEDLMNNFGNEEFDCHFLDEGFTAKDILDQKINEVSSSDDKDAFYVADLGDILKKHLRWLKALPRVTPFYAVKCNDSKAIVKTLAATGTGFDCASKTEIQLVQSLGVPPERIIYANPCKQVSQIKYAANNGVQMMTFDSEVELMKVARAHPKAKLVLRIATDDSKAVCRLSVKFGATLRTSRLLLERAKELNIDVVGVSFHVGSGCTDPETFVQAISDARCVFDMGAEVGFSMYLLDIGGGFPGSEDVKLKFEEITGVINPALDKYFPSDSGVRIIAEPGRYYVASAFTLAVNIIAKKIVLKEQTGSDDEDESSEQTFMYYVNDGVYGSFNCILYDHAHVKPLLQKRPKPDEKYYSSSIWGPTCDGLDRIVERCDLPEMHVGDWMLFENMGAYTVAAASTFNGFQRPTIYYVMSGPAWQLMQQFQNPDFPPEVEEQDASTLPVSCAWESGMKRHRAACASASINVAGGGSGGGGSGGGGSGGGGS
B2: SIP-L (other)
chain: MASEELQKDLEEVKVLLEKATRKRVRDALTAEKSKIETEIKNKMQQKSQKKAELLDNEKPAAVVAPITTGYTVKISNYGWDQSDKFVKIYITLTGVHQVPTENVQVHFTERSFDLLVKNLNGKSYSMIVNNLLKPISVEGSSKKVKTDTVLILCRKKVENTRWDYLTQVEKECKEKEKPSYDTETDPSEGLMNVLKKIYEDGDDDMKRTINKAWVESREKQAKGDTEF
B3: SIP-S (other)
chain: MASEELQKDLEEVKVLLEKATRKRVRDALTAEKSKIETEIKNKMQQKSQKKAELLDNEKPAAVVAPITTGYTDGISQISL
notes: B42 fusion in yeast two-hybrid
B4: APC (2681-2843) (other, human, UniProt P25054 2681-2843, looked up)
chain: PVIDSVSEKANPNIKDSKDNQAKQNVGNGSVPMRTVGLENRLNSFIQVDAPDQKGTEIKPGQNNPVPVSETNESSIVERTPFSSSSSSKHSSPSGTVAARVTPFNYNPSPRKSSADSTSARPSQIPTPVNNNTKKRDSKTDSTESSGTQSPKRHSGSYLVTSV
notes: LexA or B42 fusion in yeast two-hybrid
B5: empty (LexA DNA-binding domain without insert) (other, UniProt P0A7C2 1-202, looked up)
chain: MKALTARQQEVFDLIRDHISQTGMPPTRAEIAQRLGFRSPNAAEEHLKALARKGVIEIVSGASRGIRLLQEEEEGLPLVGRVAAGEPLLAQQHIEGHYQVDPSLFKPNADFLLRVSGMSMKDIGIMDGDLLAVHKTQDVRNGQVVVARIDDEVTVKRLKKQGNKVELLPENSEFKPIVVDLRQQSFTIEGLAVGVIRNGDWL
B6: Siah-1 (other)
chain: MVIIIFLLPPYVFISEMSRQTATALPTGTSKCPPSQRVPALTGTTASNNDLASLFECPVCFDYVLPPILQCQSGHLVCSNCRPKLTCCPTCRGPLGSIRNLAMEKVANSVLFPCKYASSGCEITLPHTEKADHEELCEFRPYSCPCPGASCKWQGSLDAVMPHLMHQHKSITTLQGEDIVFLATDINLPGAVDWVMMQSCFGFHFMLVLEKQEKYDGHQQFFAIVQLIGTRKQAENFAYRLELNGHRRRLTWEATPRSIHEGIATAIMNSDCLVFDTSIAQLFAENGNLGINVTISMC
notes: also called Siah-1α; Siah 1α

What was measured:
HA-TRAF6 = assay: cell-based or functional assay
[1] = target: the molecule itself; assay: yeast two-hybrid; LexA-SIP-L with B42-SIP-L; growth on leucine-deficient media (Leu+)
Siah-1 (22-298) = target: T1, Siah-1 (22-298); assay: yeast two-hybrid library screen; LexA-Siah-1 (22-298) bait, human embryonic brain cDNA clones
Experimental: Transformations were performed by a LiCi method using 0.25 mg of pJG4-5-cDNA library DNA, and 5 mg of denatured salmon sperm carrier DNA. Clones that formed on Leu deficient BMM plates containing 2% galactose/1% raffinose were transferred to BMM plates containing leucine and 2% glucose, and filter assays were performed for β-galactosidase measurements as previously described.

SIP-L [2] = target: B2; assay: yeast two-hybrid; LexA-SIP-L with B42-SIP-S; Leu+ growth - and β-Gal -
[3] = target: B5; assay: yeast two-hybrid; empty LexA with B42-APC(2681-2843); Leu+ growth - and β-Gal -
SIP-L [4] = target: B2; assay: yeast two-hybrid; empty LexA with B42-SIP-L; Leu+ growth - and β-Gal -
SAF-1 = target: T2, SAF-1; assay: yeast two-hybrid (FIG. 6A)
Experimental: Transformed cells were grown on semi-solid media lacking leucine or containing leucine as a control.

B1
half-life of HA-TRAF6 (35S pulse-chase), ODC-RANKp with AZ (HA-TRAF6): < 1 h | half-life of HA-TRAF6 (35S pulse-chase), ODC-RANKp without AZ (HA-TRAF6): 2 h

B2
binding result [1]: binds | binding result (Siah-1 (22-298)): binds

B3
binding result (SIP-L [2]): no binding | binding result (Siah-1 (22-298)): binds

B4
binding result [3]: no binding | binding result (Siah-1 (22-298)): binds

B5
binding result (SIP-L [4]): no binding

B6
binding result (SAF-1): no binding

— US20070042463A1 (BURNHAM INSTITUTE, published 2007)
